Reference: patent publication US20230272059A1 (TILLOTTS PHARMA, published 2023)
Like-named read-outs stand apart in the source and are kept apart here.

Columns and labels:
[1] = molecular target: Rhesus monkey TNFα (Rhesus monkey (Macaca mulatta), UniProt P48094 77-233); assay: cell-based or functional assay
[2] = molecular target: T1, recombinant human TNFα (human, UniProt P01375 77-233); assay: cell-based or functional assay
[3] = molecular target: recombinant Cynomolgus monkey TNFα (Cynomolgus monkey (Macaca fascicularis), UniProt P79337 77-233); assay: cell-based or functional assay
[4] = molecular target: T1, recombinant human TNFα; assay: inhibition ELISA, blocking of biotinylated TNFα binding to coated TNFRII-Fc; relative to infliximab
[5] = molecular target: T1, recombinant human TNFα; assay: inhibition ELISA, blocking of biotinylated TNFα binding to coated TNFRI-Fc; relative to infliximab
[6] = molecular target: T1, recombinant human TNFα; assay: cell-based or functional assay; remark: listed apart in the source
[7] = molecular target: T1, recombinant human TNFα; assay: cell-based or functional assay; remark: listed apart in the source
[8] = molecular target: T1, recombinant human TNFα; assay: inhibition ELISA: biotinylated human TNFα pre-incubated with serially diluted scFv, binding of unblocked TNFα to coated TNFRII-Fc detected
[9] = molecular target: T1, recombinant human TNFα; assay: inhibition ELISA, blocking of biotinylated TNFα binding to coated TNFRII-Fc

T1 sequence (P01375 77-233 limits assumed): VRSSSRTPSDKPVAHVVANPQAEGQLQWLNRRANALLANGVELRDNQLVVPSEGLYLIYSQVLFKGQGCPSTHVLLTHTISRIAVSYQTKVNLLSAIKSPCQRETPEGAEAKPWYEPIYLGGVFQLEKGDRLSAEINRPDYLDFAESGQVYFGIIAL
Rhesus monkey TNFα, sequence (P48094 77-233 limits assumed): as the sequence (P01375 77-233 limits assumed) above, with R44T, T72N, R138L counted along it
recombinant Cynomolgus monkey TNFα, sequence (P79337 77-233 limits assumed): as the sequence (P01375 77-233 limits assumed) above, with L37V, R44T, T72N, R138L counted along it

Binder	IC50 (read off the curve) (L929 assay, % growth) [1] [ng/mL]	IC50 (read off the curve) (L929 assay, % growth) [2] [ng/mL]	IC50 (read off the curve) (L929 assay, % growth) [3] [ng/mL]	rel. IC50 (IC50 infliximab / IC50 scFv, ng/mL) [4]	rel. IC50 (IC50 infliximab / IC50 scFv, ng/mL) [5]	IC50 (read off the curve) (L929 assay, % growth) [6] [ng/mL]	L929 assay, rel. IC50 (IC50 infliximab / IC50 scFv, ng/mL) [7]	IC50 (read off the curve) [8] [ng/mL]	IC [ng] (head cut off; probably IC50 [ng/mL]) [9]
humanized scFv 16-22-H05-sc02 (scFv, also called 16-22-H05-sc02 (STR); structural graft) scFv: MDIQMTQSPSSLSASVGDRVTIKCQASQSIFSGLAWYQQKPGKAPKLLIYGASKLASGVPSRFSGSGSGTEFTLTISGLQPADFATYYCQSYYYSSSSSDGSYAFGGGTKLTVLGGGGGSGGGGSGGGGSGGGGSEVQLVESGGGLVQPGGSLRLSCKASGIDFNNYGIGWVRQAPGKGLEWITYIYPGFAITNFANSVKGRFTISSDNSKNTVYLQMNSLRAEDTAVYYCARDPVYATSSGYFDLWGQGTLVTVSS	~3	~0.6	~3	5.7	3.5	~0.5	13.1	~20	20 ng (head cut off)
humanized scFv 16-22-H05-sc04 (scFv, also called 16-22-H05-sc04 (CDR/STR); domain shuffled variant) scFv: MDIQMTQSPSSLSASVGDRVTITCQASQSIFSGLAWYQQKPGKAPKLLIYGASKLASGVPSRFSGSGSGTEFTLTISGLQPADFATYYCQSYYYSSSSSDGSYAFGGGTKLTVLGGGGGSGGGGSGGGGSGGGGSEVQLVESGGGLVQPGGSLRLSCKASGIDFNNYGIGWVRQAPGKGLEWITYIYPGFAITNFANSVKGRFTISSDNSKNTVYLQMNSLRAEDTAVYYCARDPVYATSSGYFDLWGQGTLVTVSS	~3	~0.6	~3	3.5	2.8	~0.5	14.6	~30	32 ng (head cut off)
